Measurements: paper PMC4646322 (The Journal of Biological Chemistry, 2015)

What was measured:
[1] = molecular target: the molecule itself; experiment: AUC; sedimentation equilibrium, 20 and 200 μM TolR(36–142), 15,000-35,000 rpm, 20 h at each speed, 50 mM Tris pH 7.5, 150 mM NaCl, 20 °C, interference optics; self-association model
[2] = molecular target: the molecule itself; experiment: SEC-MALS; SEC-MALLS, Superdex75 10/300, 50 mM Tris pH 7.5, 150 mM NaCl; samples loaded at 20, 200 or 500 μM

Row | Protein | stoichiometry N [1] | binding result [2]
1 | E. coli TolR(36–142), intact periplasmic domain of TolR (domain or fragment, Escherichia coli K12, three residues left at the N terminus after cleavage by tobacco etch virus protease; expected mass of the monomer 11,695.4 Da; Vector pETM-11; also called TolR21; source: E. coli BL21 DE3, purified (HisTrap, TEV cleavage, Superdex75); not shown: His6, N-terminal, cleaved) GAMAPIITQSVEVDLPDATESQAVSSNDNPPVIVEVSGIGQYTVVVEKDRLERLPPEQVVAEVSSRFKANPKTVFLIGGAKDVPYDEIIKALNLLHSAGVKSVGLMTQPI | 2 | 
2 | E. coli TolR(64–142) (domain or fragment, Escherichia coli K12, three residues left at the N terminus after cleavage by tobacco etch virus protease; expected mass 8818.3 Da; Dimer that dissociates on dilution; source: E. coli BL21 DE3, purified (HisTrap, TEV cleavage, Superdex75); not shown: His6, N-terminal, cleaved) GAMVIVEVSGIGQYTVVVEKDRLERLPPEQVVAEVSSRFKANPKTVFLIGGAKDVPYDEIIKALNLLHSAGVKSVGLMTQPI |  | binds
3 | E. coli TolR(36–133) (domain or fragment, Escherichia coli K12, three residues left at the N terminus after cleavage by tobacco etch virus protease; TolR, Escherichia coli K12, residues 36-133 (9 C-terminal residues deleted); expected mass 10,768.2 Da; Dimer that dissociates on dilution; essentially monomeric at low micromolar concentrations; source: E. coli BL21 DE3, purified (HisTrap, TEV cleavage, Superdex75); not shown: His6, N-terminal, cleaved) GAMAPIITQSVEVDLPDATESQAVSSNDNPPVIVEVSGIGQYTVVVEKDRLERLPPEQVVAEVSSRFKANPKTVFLIGGAKDVPYDEIIKALNLLHSAGVK |  | binds
4 | E. coli TolR(60–133), truncated TolR (domain or fragment, Escherichia coli K12, three residues left at the N terminus after cleavage by tobacco etch virus protease; TolR, Escherichia coli K12, residues 60-133 (N- and C-terminal strand-swapped regions deleted); expected mass 8314.6 Da; Dimer that dissociates already at 200 μM; also called TolR24; source: E. coli BL21 DE3, purified (HisTrap, TEV cleavage, Superdex75); not shown: His6, N-terminal, cleaved) GAMDNPPVIVEVSGIGQYTVVVEKDRLERLPPEQVVAEVSSRFKANPKTVFLIGGAKDVPYDEIIKALNLLHSAGVK |  | binds
